In the supplement of paper PMC9732359:
± gives the uncertainty stated by the source.

Experiment: protein stability index of a GFP-peptide fusion (yeast GPS) (PSI 1-4); higher = more stable; sorted into four equal gates, so the index is relative within each strain
Settings: ubr1∆
How it was run: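 Mid-log yeast cultures in leucine-free medium, carrying a pooled plasmid library, were sorted into four equal gates by their GFP/Cherry fluorescence ratio. Each plasmid expressed Cherry along with GFP fused upstream of a tiled 17-residue yeast protein peptide. Plasmids recovered from each gate were PCR-amplified and Illumina-sequenced, with reads assigned to strains by barcodes. The protein stability index was obtained by summing each gate's read frequency weighted by its gate number.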

In order of rising protein stability index:
1. NPLKNKQVLLRLNPYAK [RPL4A]  1.13 ± 0.18
2. NNSSITLRCSVVEACGN [YCS4]  1.25 ± 0.041
3. NGFMHAGTTDNSFIKAN [RPN2]  1.26 ± 0.051
4. NISFYKLHVNWNLNATK [SIN4]  1.48 ± 0.081
5. NDFFIIYYTPAFFHLFA [YJL039C/NUP192]  1.58 ± 0.042
6. NIKHKHTSIRETLENGE [SMC2]  1.68 ± 0.24
7. NGIVDQVLVTTNQDGLK [RPB2]  1.81 ± 0.055
8. NPLWNAIIVAGVQSNGD [PRE4]  1.89 ± 0.04
9. NKNNNNRHNLLNDVVSF [SWI1]  1.9 ± 0.034
10. NKNIDIGLLNKSKSSLD [RPN2]  1.92 ± 0.05
11. NNVKQMVMAGSKGSFIN [RPO21]  1.94 ± 0.068
12. NLLKNFISSNDAFNMLS [SNF6]  1.98 ± 0.043
13. NEYVIKTPVFTTGGDYI [YMR129W/POM152]  1.99 ± 0.053
14. NLTYSSGLFVDVKKRTY [RPB2]  2 ± 0.031
15. NILKILSSLILKIFQEQ [SRB8]  2.02 ± 0.037
16. NLYTPKAEMPPEHLRKI [PRP8]  2.12 ± 0.053
17. NKRLDVIDGKLPFMQNA [YDL088C/ASM4]  2.19 ± 0.044
18. NEVSLAIKKSSMKMELL [SMC2]  2.21 ± 0.075
19. NGIIMNGTLIGCVSYSP [YMR153W/NUP53]  2.24 ± 0.083
20. NPPSYQSSEDVITIKSR [RPB7]  2.25 ± 0.28
21. NNSANNNAHSSDLGTVV [YMR153W/NUP53]  2.28 ± 0.044
22. NKPIKRMLSSILDINVS [SWP82]  2.31 ± 0.027
23. NFQDLSYLSETLISRIS [YML103C/NUP188]  2.32 ± 0.074
24. NLANEQPVLEKPLKKGS [SIR4]  2.32 ± 0.089
25. NLTEFVQMDKIRKIVRK [AAR2]  2.34 ± 0.13
26. NEYYPMCEQALSALFTI [YCS4]  2.39 ± 0.045
27. NFGFGIDEHIDLGIKYD [RPL11A]  2.39 ± 0.11
28. NNGVSNLWKNIFLSKEN [COR1]  2.4 ± 0.058
29. NLVVSGPPQSLYGLNLT [FAS1]  2.45 ± 0.043
30. NLPGNITVVLGVNGYIW [RRP4]  2.5 ± 0.066
31. NIWLNNKIINWEISNPD [NUT1]  2.56 ± 0.077
32. NKKRPSSKKVFSSNLSY [YOR098C/NUP1]  2.56 ± 0.05
33. NDKQGFPMKQGVLLPTR [RPS6A]  2.57 ± 0.12
34. NGFSFTKFNHNKEKSNS [YOR098C/NUP1]  2.57 ± 0.052
35. NNLHELWALLNFLLPDI [ISW2]  2.63 ± 0.041
36. NPNNVNVQTQYREAPVI [RET1]  2.63 ± 0.057
37. NNVSFNAKDIQIPVYDT [FAS1]  2.64 ± 0.041
38. NPIANHTVTNSPNPTLQ [SNF5]  2.65 ± 0.03
39. NNRISNANEISANTNNT [SWP82]  2.66 ± 0.048
40. NFEAALFAKSSSKKEYM [GAL11]  2.67 ± 0.058
41. NEGAASSNPQSAYVKAF [SMC1]  2.69 ± 0.027
42. NDILVLMESEREARRLR [RPS28A]  2.7 ± 0.097
43. NIAQMIPGMSNMMNQVG [SRP54]  2.7 ± 0.078
44. NNGLPECQVIAAEGLCK [YCG1]  2.72 ± 0.048
45. NFFQAPQDYVLERVKRI [YML031W/NDC1]  2.77 ± 0.036
46. NDVQGIDDVQTIKVVKR [RPP1]  2.81 ± 0.056
47. NFENDNENNSNGGEDTS [REC8]  2.81 ± 0.16
48. NITDNLFQELSKVVDDM [GRR1]  2.81 ± 0.098
49. NKSSVRPTGGANMATVP [MED6]  2.83 ± 0.057
50. NGGITNTATNALRPSDI [YOR098C/NUP1]  2.84 ± 0.12
51. NLKFLKNKDSLVSNPHE [SRB4]  2.84 ± 0.049
52. NDSENNSSEEDKKKGQN [ITC1]  2.86 ± 0.1
53. NGLKDQLNEERSRYRRE [YIL149C/MLP2]  2.86 ± 0.17
54. NADFQKPWFATVNGQAR [FAS1]  2.87 ± 0.1
55. NKSLKYVIHGIELLSDL [LIN1]  2.87 ± 0.067
56. NDNENIVNNDLPTTVVS [MED2]  2.89 ± 0.039
57. NPIDIKRRFGELMDRTG [RPP1]  2.9 ± 0.059
58. NNSKSRYPMNLLEFIID [ECM29]  2.92 ± 0.097
59. NLQPASVINNYLREDQM [NUT1]  2.93 ± 0.14
60. NNNVTAVPAATPANTNN [SWI1]  2.98 ± 0.042
61. NLQQQQQQQIQVPLQQT [YGR119C/NUP57]  3.03 ± 0.11
62. NLTSEIEDLRADINSNR [YOR098C/NUP1]  3.03 ± 0.084
63. NFADKYDEVKKHWGGGI [RPL8A]  3.05 ± 0.14
64. NNDDNGNNNNNNSGNDN [MED2]  3.05 ± 0.041
65. NNPPKPQKPVPLNVLQD [SNF2]  3.052 ± 0.028
66. NAQLSCITKQDGFKIYD [PUP2]  3.07 ± 0.1
67. NIIEKAMDYAISIENIV [RPN12]  3.07 ± 0.071
68. NFLDAPGHVNFMDETAV [SNU114]  3.08 ± 0.11
69. NNYNSRIQLMNDFTTKL [MED1]  3.08 ± 0.059
70. NLQKIDKDSEELDSKTR [MED4]  3.09 ± 0.053
71. NATLTPNDSNDEKVTIL [SWI1]  3.11 ± 0.04
72. NECVCTPYNADFDGDEM [RPO31]  3.11 ± 0.09
73. NDIPLGSGQPDNDTVVT [SRB8]  3.12 ± 0.28
74. NIETGENHNGQSISNEN [SWI3]  3.13 ± 0.12
75. NHKSKDNNNGDDDDEDD [SKP1]  3.14 ± 0.049
76. NNKIITLVKGPKEPRLK [SKI6]  3.14 ± 0.081
77. NIVMDSKQNGIEQSITK [SSN8]  3.15 ± 0.12
78. NAEKYFNNGDDDDYGDE [RPC31]  3.16 ± 0.073
79. NFLSVITNKHQEGLAKF [RPN2]  3.17 ± 0.14
80. NNLSSMNLDFDIEEGPI [MCD1]  3.19 ± 0.032
81. NPHQDLQAQDRAHRIGQ [SNF2]  3.19 ± 0.053
82. NNNSNNIMSASGGLFGN [YGL172W/NUP49]  3.2 ± 0.035
83. NELLDLTESQTETYISD [RPN5]  3.21 ± 0.069
84. NDLDEDDIYDISLLKNR [RPN4]  3.22 ± 0.2
85. NKRLCDEIATIQSKRLR [RPS17A]  3.22 ± 0.071
86. NECIEERVPKTQLDKLR [SMB1]  3.24 ± 0.046
87. NIQKKQPAKEKGVTEKD [RRP6]  3.28 ± 0.047
88. NLYDGAEHKYMPYTINE [BRR2]  3.28 ± 0.062
89. NHFKDTYGFSILDIVIN [FAS1]  3.29 ± 0.088
90. NMVLENVKELWTEKKGK [SMD2]  3.3 ± 0.065
91. NKNQDAFEAELSNIPLL [ARP9]  3.31 ± 0.076
92. NLDIAKDLIRTDEALFE [MED4]  3.31 ± 0.24
93. NNSDDEDVDDEELDITP [IRR1]  3.31 ± 0.077
94. NNRRRSRKRGGENVFLK [SIR3]  3.33 ± 0.048
95. NFSGLNGGITNTATNAL [YOR098C/NUP1]  3.34 ± 0.11
96. NDNDITVKENESDSKLQ [UBP6]  3.35 ± 0.081
97. NINNNINSTKNGKDNNN [MED2]  3.35 ± 0.041
98. NKKDKKKEEEEQLSEED [RPN1]  3.36 ± 0.15
99. NEIESRQLTSLGSKKEL [SNU114]  3.37 ± 0.058
100. NGGNSVITLAEYEKRNH [SRP68]  3.38 ± 0.12
101. NNLEKYPFRYKTWLRNQ [RTT102]  3.38 ± 0.067
102. NIGQQQVKKPRKQRVKK [SWI1]  3.48 ± 0.11
103. MYQEWEDETVKVAQLRQ [NSL1]  3.5 ± 0.07
104. NDWKLETERLISQSQLG [SIN4]  3.53 ± 0.19
